# In patent US20170283497A1 (CELLECTIS, published 2017):
# B1: D10-v1 scCAR (other)
# chain: QVQLKESGPGLVAPSQTLSITCTVSGFSLTSYGVHWVRQPPGKGLEWLGVIWAGGFTNYNSALKSRLSISKDNSKSQVLLKMTSLQTDDTAMYYCARRGSSYSMDYWGQGTSVTVSSGGGGSGGGGSGGGGSEIVLSQSPAITAASLGQKVTITCSASSNVSYIHWYQQRSGTSPRPWIYEISKLASGVPVRFSGSGSGTSYSLTISSMEAEDAAIYYCQQWNYPLITFGSGTKLEIQGLAVSTISSFFPPGYQIYIWAPLAGTCGVLLLSLVITLYCKRGRKKLLYIFKQPFMRPVQTTQEEDGCSCRFPEEEEGGCELRVKFSRSADAPAYQQGQNQLYNELNLGRREEYDVLDKRRGRDPEMGGKPRRKNPQEGLYNELQKDKMAEAYSEIGMKGERRRGKGHDGLYQGLSTATKDTYDALHMQALPPR
# B2: H10-v5 scCAR (other)
# chain: EVKLVESGGGLVKPGGSLKLSCAASGFTFSSYAMSWVRQTPEKRLEWVASISTGASAYFPDSVKGRFTISRDNARNILYLQMSSLRSEDTAMYYCARITTSTWYFDVWGAGTTVTVSSGGGGSGGGGSGGGGSDIKMTQSPSSMYASLGERVTITCKASQDINSYLSWFQQKPGKSPKTLIYRANRLVDGVPSRFSGSGSGQDYSLTISSLEYEDMGIYYCLQYDEFPYTFGGGTKLEIKEPKSPDKTHTCPPCPAPPVAGPSVFLFPPKPKDTLMIARTPEVTCVVVDVSHEDPEVKFNWYVDGVEVHNAKTKPREEQYNSTYRVVSVLTVLHQDWLNGKEYKCKVSNKALPAPIEKTISKAKGQPREPQVYTLPPSRDELTKNQVSLTCLVKGFYPSDIAVEWESNGQPENNYKTTPPVLDSDGSFFLYSKLTVDKSRWQQGNVFSCSVMHEALHNHYTQKSLSLSPGKIYIWAPLAGTCGVLLLSLVITLYCKRGRKKLLYIFKQPFMRPVQTTQEEDGCSCRFPEEEEGGCELRVKFSRSADAPAYQQGQNQLYNELNLGRREEYDVLDKRRGRDPEMGGKPRRKNPQEGLYNELQKDKMAEAYSEIGMKGERRRGKGHDGLYQGLSTATKDTYDALHMQALPPR
# B3: D10-v5 scCAR (other)
# chain: QVQLKESGPGLVAPSQTLSITCTVSGFSLTSYGVHWVRQPPGKGLEWLGVIWAGGFTNYNSALKSRLSISKDNSKSQVLLKMTSLQTDDTAMYYCARRGSSYSMDYWGQGTSVTVSSGGGGSGGGGSGGGGSEIVLSQSPAITAASLGQKVTITCSASSNVSYIHWYQQRSGTSPRPWIYEISKLASGVPVRFSGSGSGTSYSLTISSMEAEDAAIYYCQQWNYPLITFGSGTKLEIQEPKSPDKTHTCPPCPAPPVAGPSVFLFPPKPKDTLMIARTPEVTCVVVDVSHEDPEVKFNWYVDGVEVHNAKTKPREEQYNSTYRVVSVLTVLHQDWLNGKEYKCKVSNKALPAPIEKTISKAKGQPREPQVYTLPPSRDELTKNQVSLTCLVKGFYPSDIAVEWESNGQPENNYKTTPPVLDSDGSFFLYSKLTVDKSRWQQGNVFSCSVMHEALHNHYTQKSLSLSPGKIYIWAPLAGTCGVLLLSLVITLYCKRGRKKLLYIFKQPFMRPVQTTQEEDGCSCRFPEEEEGGCELRVKFSRSADAPAYQQGQNQLYNELNLGRREEYDVLDKRRGRDPEMGGKPRRKNPQEGLYNELQKDKMAEAYSEIGMKGERRRGKGHDGLYQGLSTATKDTYDALHMQALPPR
# B4: H10-v1 scCAR (other)
# chain: EVKLVESGGGLVKPGGSLKLSCAASGFTFSSYAMSWVRQTPEKRLEWVASISTGASAYFPDSVKGRFTISRDNARNILYLQMSSLRSEDTAMYYCARITTSTWYFDVWGAGTTVTVSSGGGGSGGGGSGGGGSDIKMTQSPSSMYASLGERVTITCKASQDINSYLSWFQQKPGKSPKTLIYRANRLVDGVPSRFSGSGSGQDYSLTISSLEYEDMGIYYCLQYDEFPYTFGGGTKLEIKGLAVSTISSFFPPGYQIYIWAPLAGTCGVLLLSLVITLYCKRGRKKLLYIFKQPFMRPVQTTQEEDGCSCRFPEEEEGGCELRVKFSRSADAPAYQQGQNQLYNELNLGRREEYDVLDKRRGRDPEMGGKPRRKNPQEGLYNELQKDKMAEAYSEIGMKGERRRGKGHDGLYQGLSTATKDTYDALHMQALPPR
# B5: H10-v3 scCAR (other)
# chain: EVKLVESGGGLVKPGGSLKLSCAASGFTFSSYAMSWVRQTPEKRLEWVASISTGASAYFPDSVKGRFTISRDNARNILYLQMSSLRSEDTAMYYCARITTSTWYFDVWGAGTTVTVSSGGGGSGGGGSGGGGSDIKMTQSPSSMYASLGERVTITCKASQDINSYLSWFQQKPGKSPKTLIYRANRLVDGVPSRFSGSGSGQDYSLTISSLEYEDMGIYYCLQYDEFPYTFGGGTKLEIKTTTPAPRPPTPAPTIASQPLSLRPEACRPAAGGAVHTRGLDFACDIYIWAPLAGTCGVLLLSLVITLYCKRGRKKLLYIFKQPFMRPVQTTQEEDGCSCRFPEEEEGGCELRVKFSRSADAPAYQQGQNQLYNELNLGRREEYDVLDKRRGRDPEMGGKPRRKNPQEGLYNELQKDKMAEAYSEIGMKGERRRGKGHDGLYQGLSTATKDTYDALHMQALPPR
# B6: D10-v3 scCAR (other)
# chain: QVQLKESGPGLVAPSQTLSITCTVSGFSLTSYGVHWVRQPPGKGLEWLGVIWAGGFTNYNSALKSRLSISKDNSKSQVLLKMTSLQTDDTAMYYCARRGSSYSMDYWGQGTSVTVSSGGGGSGGGGSGGGGSEIVLSQSPAITAASLGQKVTITCSASSNVSYIHWYQQRSGTSPRPWIYEISKLASGVPVRFSGSGSGTSYSLTISSMEAEDAAIYYCQQWNYPLITFGSGTKLEIQTTTPAPRPPTPAPTIASQPLSLRPEACRPAAGGAVHTRGLDFACDIYIWAPLAGTCGVLLLSLVITLYCKRGRKKLLYIFKQPFMRPVQTTQEEDGCSCRFPEEEEGGCELRVKFSRSADAPAYQQGQNQLYNELNLGRREEYDVLDKRRGRDPEMGGKPRRKNPQEGLYNELQKDKMAEAYSEIGMKGERRRGKGHDGLYQGLSTATKDTYDALHMQALPPR
# Molecular target: Tyrosine-protein kinase transmembrane receptor ROR1 (human, UniProt Q01973 30-937)
# Sequence (Q01973 30-937): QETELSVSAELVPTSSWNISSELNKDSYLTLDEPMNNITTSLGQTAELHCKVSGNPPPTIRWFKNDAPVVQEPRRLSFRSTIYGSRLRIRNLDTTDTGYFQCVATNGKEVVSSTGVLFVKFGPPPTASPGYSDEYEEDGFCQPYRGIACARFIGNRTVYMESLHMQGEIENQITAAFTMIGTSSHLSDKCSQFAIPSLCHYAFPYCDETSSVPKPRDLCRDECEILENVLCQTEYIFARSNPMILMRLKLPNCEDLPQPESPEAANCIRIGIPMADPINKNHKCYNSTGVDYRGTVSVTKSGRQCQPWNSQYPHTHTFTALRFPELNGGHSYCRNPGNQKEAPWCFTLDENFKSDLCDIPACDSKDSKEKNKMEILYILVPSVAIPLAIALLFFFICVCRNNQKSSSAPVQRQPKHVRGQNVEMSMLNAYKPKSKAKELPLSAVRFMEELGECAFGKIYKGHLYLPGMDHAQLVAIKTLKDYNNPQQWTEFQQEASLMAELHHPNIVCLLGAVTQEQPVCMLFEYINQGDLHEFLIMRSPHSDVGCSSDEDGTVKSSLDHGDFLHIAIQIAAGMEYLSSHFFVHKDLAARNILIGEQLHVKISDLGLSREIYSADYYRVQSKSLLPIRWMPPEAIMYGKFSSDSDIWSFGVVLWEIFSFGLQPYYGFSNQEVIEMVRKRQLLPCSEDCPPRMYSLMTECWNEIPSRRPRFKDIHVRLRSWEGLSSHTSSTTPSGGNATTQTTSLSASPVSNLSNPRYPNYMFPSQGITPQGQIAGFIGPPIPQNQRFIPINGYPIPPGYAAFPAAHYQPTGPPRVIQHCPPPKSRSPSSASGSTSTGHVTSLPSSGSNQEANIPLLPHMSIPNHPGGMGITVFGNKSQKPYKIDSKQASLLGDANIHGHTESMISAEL
# Assay: cell-based or functional assay
Binder,degranulation of scCAR-modified T cells (primary screening) [%],"cytotoxic activity of scCAR-modified T cells, specific lysis of PC-3 cells [%]",degranulation of scCAR-modified T cells (secondary screening) [%],production of IFNγ by scCAR-modified T cells [pg/mL]
B1,≥ 20,,,
B2,≥ 20,,,
B3,≥ 20,> 20,≥ 20,≥ 1500
B4,≥ 20,,,
B5,≥ 20,> 20,≥ 20,≥ 1500
B6,≥ 20,> 20,≥ 20,≥ 1500
